Reference: patent publication US20230078601A1 (CLEVELAND CLINIC FOUNDATION, published 2023)

Key:
[1] = target: human Anti-Mullerian Hormone Receptor II (AMHR2), full length (human) (UniProt Q16671); experiment: flow cytometry competition on AMHR2-OVCAR8 cells: 4D12G1 mAb at 1 µg/ml with recombinant ovalbumin at 1 µg/ml; 91 % without competitor in FIG. 2E
[2] = target: human Anti-Mullerian Hormone Receptor II (AMHR2), full length (human) (UniProt Q16671); experiment: flow cytometry competition on AMHR2-OVCAR8 cells: 4D12G1 mAb at 1 µg/ml with recombinant ovalbumin at 100 µg/ml; 91 % without competitor in FIG. 2E
[3] = target: human Anti-Mullerian Hormone Receptor II (AMHR2), full length (human) (UniProt Q16671); experiment: flow cytometry competition on AMHR2-OVCAR8 cells: 4D12G1 mAb at 1 µg/ml with recombinant ovalbumin at 10 µg/ml; 91 % without competitor in FIG. 2E
[4] = target: human Anti-Mullerian Hormone Receptor II (AMHR2), full length (human) (UniProt Q16671); experiment: flow cytometry on primary HGSOC-2 cells
[5] = target: human Anti-Mullerian Hormone Receptor II (AMHR2), full length (human) (UniProt Q16671); experiment: flow cytometry on AMHR2-OVCAR8 cells, mAb at 1 µg/ml
[6] = target: human Anti-Mullerian Hormone Receptor II (AMHR2), full length (human) (UniProt Q16671); experiment: flow cytometry on primary HGSOC-1 cells

Sequence of human Anti-Mullerian Hormone Receptor II (AMHR2), full length (human) (Q16671 18-573 limits assumed): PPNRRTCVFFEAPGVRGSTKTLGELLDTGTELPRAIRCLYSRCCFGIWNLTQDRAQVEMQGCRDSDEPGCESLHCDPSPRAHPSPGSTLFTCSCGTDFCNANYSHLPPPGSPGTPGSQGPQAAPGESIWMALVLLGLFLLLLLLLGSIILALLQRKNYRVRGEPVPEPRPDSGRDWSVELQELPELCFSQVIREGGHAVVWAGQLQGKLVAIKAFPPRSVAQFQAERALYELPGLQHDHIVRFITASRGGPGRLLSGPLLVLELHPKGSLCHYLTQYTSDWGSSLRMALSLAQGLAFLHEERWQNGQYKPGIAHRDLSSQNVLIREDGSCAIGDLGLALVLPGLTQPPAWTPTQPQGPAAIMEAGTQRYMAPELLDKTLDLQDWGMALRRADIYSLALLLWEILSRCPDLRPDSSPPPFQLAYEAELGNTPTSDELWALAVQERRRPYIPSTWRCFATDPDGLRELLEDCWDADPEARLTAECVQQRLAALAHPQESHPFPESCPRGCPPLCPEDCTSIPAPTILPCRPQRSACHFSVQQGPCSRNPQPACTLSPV

Row | % of cells in the 4D12G1-positive gate with ovalbumin at 1 µg/ml [1] [%] | % of cells in the 4D12G1-positive gate with ovalbumin at 100 µg/ml [2] [%] | % of cells in the 4D12G1-positive gate with ovalbumin at 10 µg/ml [3] [%] | percent of cells bound [4] [%] | % of cells in the positive gate [5] [%] | percent of cells bound [6] [%] | Substance
1 | 88 | 88 | 86 |  |  |  | recombinant ovalbumin (from UniProt P01012 2-386)
2 |  |  |  | 1.1 | 1.1 | 1.5 | isotype control mAb (antibody)
